Data on one molecule can be found in patent CN114874330A.

Assay [1] has as its target BCMA-CAR (CAR with the CT103A scFv) on cells. The experiment in a line: flow cytometry, AF647-labelled antibody on BCMA-CAR-Jurkat cells; first series, 2-fold dilution step 7 of 10. Also on record: scale not given here. (In flow cytometry, cells or beads pass a laser one at a time.)
Assay [2] shares this target. The experiment in a line: flow cytometry, AF647-labelled antibody on BCMA-CAR-Jurkat cells; first series, 2-fold dilution step 9 of 10. Also on record: scale not given here.
The target is the same in assay [3]. The assay is described as follows: flow cytometry, AF647-labelled antibody on BCMA-CAR-Jurkat cells; SECOND series, also printed as 12F1 (possibly 6G8), step 5 of 10. Details: scale not given here.
The target is the same in assay [4]. The experiment in a line: flow cytometry, AF647-labelled antibody on BCMA-CAR-Jurkat cells; first series, 2-fold dilution step 4 of 10. Details: scale not given here.
Assay [5] has the same target. The experiment in a line: flow cytometry, AF647-labelled antibody on BCMA-CAR-Jurkat cells; SECOND series, also printed as 12F1 (possibly 6G8), step 2 of 10. Details: scale not given here.
The target is the same in assay [6]. The assay is described as follows: flow cytometry, AF647-labelled antibody on BCMA-CAR-Jurkat cells; first series, 2-fold dilution step 3 of 10. Also on record: scale not given here.
The target is the same in assay [7]. The assay is described as follows: flow cytometry, AF647-labelled antibody on BCMA-CAR-Jurkat cells; SECOND series, also printed as 12F1 (possibly 6G8), step 10 of 10 (lowest). Also on record: scale not given here.
Assay [8] has the same target. The assay is described as follows: flow cytometry, AF647-labelled antibody on BCMA-CAR-Jurkat cells; SECOND series, also printed as 12F1 (possibly 6G8), step 3 of 10. Also on record: scale not given here.
Assay [9] shares this target. The experiment in a line: flow cytometry, AF647-labelled antibody on BCMA-CAR-Jurkat cells; SECOND series, also printed as 12F1 (possibly 6G8), step 6 of 10. Details: scale not given here.
The target of assay [10] is CT103A scFv. The experiment in a line: competition ELISA, antibody at 500 ng/ml pre-incubated with biotin-CT103A scFv; competitor: coated BCMA.
CT103A scFv, sequence (scFv, as listed by the source): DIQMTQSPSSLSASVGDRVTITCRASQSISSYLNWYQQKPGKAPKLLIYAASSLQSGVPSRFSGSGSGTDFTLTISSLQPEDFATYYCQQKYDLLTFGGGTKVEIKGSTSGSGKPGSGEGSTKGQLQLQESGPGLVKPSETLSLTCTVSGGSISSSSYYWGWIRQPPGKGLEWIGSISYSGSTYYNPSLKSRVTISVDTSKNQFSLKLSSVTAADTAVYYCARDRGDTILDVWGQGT
Assay [11] has as its target BCMA-CAR (CAR with the CT103A scFv) on cells. The assay is described as follows: flow cytometry, AF647-labelled antibody on BCMA-CAR-Jurkat cells; first series, 2-fold dilution step 8 of 10. Also on record: scale not given here.
Assay [12] has the same target. The assay is described as follows: flow cytometry, AF647-labelled antibody on BCMA-CAR-Jurkat cells; SECOND series, also printed as 12F1 (possibly 6G8), step 4 of 10. Details: scale not given here.
For assay [13] the target is unchanged. The assay is described as follows: flow cytometry, AF647-labelled antibody on BCMA-CAR-Jurkat cells; SECOND series, also printed as 12F1 (possibly 6G8), step 8 of 10. Details: scale not given here.
The target of assay [14] is CT103A scFv. The assay is described as follows: competition ELISA, antibody at 1000 ng/ml pre-incubated with biotin-CT103A scFv; competitor: coated BCMA.
Assay [15] concerns the target BCMA-CAR (CAR with the CT103A scFv) on cells. The experiment in a line: flow cytometry, AF647-labelled antibody on BCMA-CAR-Jurkat cells; SECOND series, also printed as 12F1 (possibly 6G8), 2-fold dilution step 1 of 10 (highest). Details: scale not given here.
The target is the same in assay [16]. The assay is described as follows: flow cytometry, AF647-labelled antibody on BCMA-CAR-Jurkat cells; SECOND series, also printed as 12F1 (possibly 6G8), step 9 of 10. Details: scale not given here.
The target is the same in assay [17]. The assay is described as follows: flow cytometry, AF647-labelled antibody on BCMA-CAR-Jurkat cells; first series, 2-fold dilution step 2 of 10. Details: scale not given here.
The target is the same in assay [18]. The experiment in a line: flow cytometry, AF647-labelled antibody on BCMA-CAR-Jurkat cells; first series, 2-fold dilution step 1 of 10 (highest); negative control MFI 0.18. Also on record: scale not given here.
Assay [19] shares this target. The experiment in a line: flow cytometry, AF647-labelled antibody on BCMA-CAR-Jurkat cells; first series, 2-fold dilution step 6 of 10. Also on record: scale not given here.
For assay [20] the target is unchanged. The experiment in a line: flow cytometry, AF647-labelled antibody on BCMA-CAR-Jurkat cells; SECOND series, also printed as 12F1 (possibly 6G8), step 7 of 10. Details: scale not given here.
For assay [21] the target is unchanged. The experiment in a line: flow cytometry, AF647-labelled antibody on BCMA-CAR-Jurkat cells; first series, 2-fold dilution step 5 of 10. Also on record: scale not given here.
Assay [22] shares this target. The assay is described as follows: flow cytometry, AF647-labelled antibody on BCMA-CAR-Jurkat cells; first series, 2-fold dilution step 10 of 10 (lowest). Also on record: scale not given here.

BCMA-CAR (CAR with the CT103A scFv) on cells, sequence (chain, as listed by the source): as the sequence (scFv, as listed by the source) above

B1: 12F1 (antibody, V domains shown)
VH: QSLEESGGRLVTPGTPLTLTCTVSGFSLNSNAMGWVRQAPGKGLEYIGFIAAYGDTHNATWAKGRFTISKTSTTVDLKITSPTTEDTATYFCASTYGGDGGWYFNIWGPGTLVTVSE
VL: AFELTQTPSSVEAAVGGTVIIKCQASQNIVRYLSWYQQKPGQPPKLLIYEASNLASGVPSRFSGSGSGTEFTLTISDLECADAATYYCQSYYDAESFNTFGGGTEVVVKG
Take B1: the MFI in assay [1] came out at 4.37; in assay [2] it was 1.53; in assay [3], 0.81; in [4], 14.3; in assay [5], 3.16; in [6] it was 15.3. Moreover, the MFI was 0.22 in assay [7]; 1.98 in [8]; 0.53 in assay [9]; 2.83 in assay [11]; 1.28 in assay [12]; 0.31 in [13]. In addition, the MFI in [15] is 4.66; in assay [16], 0.25; in assay [17] it was 15.3; in assay [18] it was 15.3; in assay [19] it was 7.73; in assay [20], 0.37. Besides, the MFI in assay [21] came to 12.4; in assay [22] it was 0.94. Also, the 信号抑制率 in assay [10] and in assay [14] was more than 90% each time.
